In assay [1] the target is LARP4A (1-287), N-terminal domain (Homo sapiens (Human), UniProt Q71RC2). As to the kind of experiment: competition EMSA (MLLE displacing 32P-oligoA15 from NTD); mutually exclusive with oligoA15 RNA; measured by competition with preformed NTD-oligoA15 complex.
Assay [2] has as its target T1, His-SUMO-MLLE (PABPC1 MLLE domain 544-626 fused with a His-tagged SUMO tag) (Homo sapiens (Human), UniProt P11940).
T1 chain: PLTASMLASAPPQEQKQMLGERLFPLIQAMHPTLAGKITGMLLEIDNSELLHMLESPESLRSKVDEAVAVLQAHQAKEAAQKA
As to the kind of experiment: Ni-NTA pull-down, SDS-PAGE.

Experimental findings from article PMC6486636 (2019) are described below.

Chain of LARP4A (1-287), N-terminal domain (Homo sapiens (Human), UniProt Q71RC2) (Q71RC2 1-287): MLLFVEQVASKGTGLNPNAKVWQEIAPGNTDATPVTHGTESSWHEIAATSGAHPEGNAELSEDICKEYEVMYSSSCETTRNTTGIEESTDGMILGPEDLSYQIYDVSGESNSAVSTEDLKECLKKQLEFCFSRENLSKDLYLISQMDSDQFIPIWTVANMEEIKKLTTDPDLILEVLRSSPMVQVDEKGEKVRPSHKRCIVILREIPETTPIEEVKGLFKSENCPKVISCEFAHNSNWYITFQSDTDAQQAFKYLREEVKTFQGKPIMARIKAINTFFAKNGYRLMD

B1: PABPC1 MLLE (544-626) (protein)
chain: PLTASMLASAPPQEQKQMLGERLFPLIQAMHPTLAGKITGMLLEIDNSELLHMLESPESLRSKVDEAVAVLQAHQAKEAAQKA
As to B1, in assay [1], the binding result was “binds”.

B2: LARP4A (1-287), N-terminal domain (protein)
chain: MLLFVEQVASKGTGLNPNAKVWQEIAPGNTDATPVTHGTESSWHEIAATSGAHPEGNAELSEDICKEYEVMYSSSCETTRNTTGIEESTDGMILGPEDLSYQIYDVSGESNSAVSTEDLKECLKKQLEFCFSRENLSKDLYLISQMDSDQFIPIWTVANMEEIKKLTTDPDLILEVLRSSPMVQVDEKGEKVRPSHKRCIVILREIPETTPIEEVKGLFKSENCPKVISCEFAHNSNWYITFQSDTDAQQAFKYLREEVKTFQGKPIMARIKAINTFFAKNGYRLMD
Regarding B2, in assay [2], the binding result is reported as “binds”.
